Measurements reported in patent US20230012273A1 (Boehringer Ingelheim, published 2023).
Changes are numbered by the printed parent chain. Read-outs that look alike come from different tables or passages of the source. Values belong to the binder of their own block, whether it stands above or below them.

Key:
[1] = target: T1, mouse SIRPα extracellular domain + His-tag (NP_031573) (mouse, UniProt P97797 32-373); assay: SPR, Ab captured, ECD-His analyte
T1 chain: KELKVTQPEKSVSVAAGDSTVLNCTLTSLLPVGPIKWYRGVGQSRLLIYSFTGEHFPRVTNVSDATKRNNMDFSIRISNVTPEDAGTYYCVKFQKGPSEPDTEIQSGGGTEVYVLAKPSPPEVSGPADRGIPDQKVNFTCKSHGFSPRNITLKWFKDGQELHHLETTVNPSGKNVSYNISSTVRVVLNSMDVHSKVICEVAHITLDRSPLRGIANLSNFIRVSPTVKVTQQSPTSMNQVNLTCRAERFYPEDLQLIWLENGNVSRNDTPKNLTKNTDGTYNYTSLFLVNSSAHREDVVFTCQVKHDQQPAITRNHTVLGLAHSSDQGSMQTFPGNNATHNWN
Method: (§1) The binding affinity of anti-SIRPα antibodies to the various SIRPα analytes is determined by surface plasmon resonance (SPR) using a ProteOn XPR36 (Bio-Rad). The running buffer for this experiment and all dilutions (except where stated) are done in 1×HBS-EP+. […] The sensorchip is deactivated with 1M ethanolamine HCl for 420 sec at a flowrate of 10 μl/min.
(§2) The analyte is injected over the captured antibody for 300 sec at a flowrate of 30 μl/min. The dissociation is done for 600 sec. Two-fold serial dilutions of each SIRP protein (Extracellular Domain+His-Tag) are injected as analyte with the highest concentrations indicated in table 36 below.

[2] = target: T2, cynomolgus SIRPα extracellular domain + His-tag (NP_001271679) (cynomolgus monkey); assay: SPR, Ab captured, ECD-His analyte
T2 construct: also called CySIRPα NP_001271679; cynoSIRPα
T2 chain: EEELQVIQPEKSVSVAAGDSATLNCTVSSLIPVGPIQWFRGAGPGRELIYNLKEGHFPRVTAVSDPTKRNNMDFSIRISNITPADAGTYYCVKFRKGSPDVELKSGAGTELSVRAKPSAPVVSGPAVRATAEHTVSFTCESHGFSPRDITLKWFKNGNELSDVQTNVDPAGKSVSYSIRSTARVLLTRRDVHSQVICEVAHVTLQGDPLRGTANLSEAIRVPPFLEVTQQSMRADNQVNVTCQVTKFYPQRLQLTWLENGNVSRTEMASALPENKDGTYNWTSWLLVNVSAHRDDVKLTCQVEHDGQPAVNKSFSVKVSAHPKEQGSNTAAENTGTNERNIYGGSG
Method: as §1, §2

[3] = target: T3, human SIRPγ extracellular domain + His-tag (NP_061026.2) (human, UniProt Q9P1W8 29-360); assay: SPR, Ab captured, ECD-His analyte
T3 construct: also called hSIRPγ; HuSIRPγ
T3 sequence (Q9P1W8 29-360): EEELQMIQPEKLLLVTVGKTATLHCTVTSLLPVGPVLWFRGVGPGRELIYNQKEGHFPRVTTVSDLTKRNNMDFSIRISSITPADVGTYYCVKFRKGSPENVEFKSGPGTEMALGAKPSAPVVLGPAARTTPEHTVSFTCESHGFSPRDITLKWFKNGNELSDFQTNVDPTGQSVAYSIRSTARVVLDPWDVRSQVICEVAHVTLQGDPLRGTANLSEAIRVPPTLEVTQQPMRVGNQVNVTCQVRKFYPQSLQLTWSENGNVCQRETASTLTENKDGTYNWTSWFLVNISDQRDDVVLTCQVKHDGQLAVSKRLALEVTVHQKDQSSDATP
Method: as §1, §2

[4] = target: T4, human SIRPαV2 extracellular domain + His-tag (CAA71403.1) (human, UniProt P78324 31-373); assay: SPR, Ab captured, ECD-His analyte
T4 construct: also called hSIRPαV2; HuSIRPαV2
T4 sequence (P78324 other isoform, or with tags, fused parts or gaps): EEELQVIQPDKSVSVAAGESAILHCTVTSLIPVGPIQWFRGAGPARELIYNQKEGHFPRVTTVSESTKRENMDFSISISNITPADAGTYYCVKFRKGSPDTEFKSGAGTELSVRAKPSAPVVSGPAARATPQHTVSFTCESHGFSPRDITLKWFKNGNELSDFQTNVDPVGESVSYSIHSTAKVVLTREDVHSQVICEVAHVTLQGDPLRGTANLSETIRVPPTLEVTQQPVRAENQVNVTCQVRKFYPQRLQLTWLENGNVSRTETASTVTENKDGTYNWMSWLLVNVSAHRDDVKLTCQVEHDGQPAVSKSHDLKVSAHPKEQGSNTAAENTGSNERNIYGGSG
Method: as §1, §2

[5] = target: T5, human SIRPαV1 extracellular domain + His-tag (NP_542970.1) (human, UniProt P78324 31-373); assay: SPR, Ab captured, ECD-His analyte
T5 construct: also called hSIRPαV1; HuSIRPαV1
T5 sequence (P78324 other isoform, or with tags, fused parts or gaps): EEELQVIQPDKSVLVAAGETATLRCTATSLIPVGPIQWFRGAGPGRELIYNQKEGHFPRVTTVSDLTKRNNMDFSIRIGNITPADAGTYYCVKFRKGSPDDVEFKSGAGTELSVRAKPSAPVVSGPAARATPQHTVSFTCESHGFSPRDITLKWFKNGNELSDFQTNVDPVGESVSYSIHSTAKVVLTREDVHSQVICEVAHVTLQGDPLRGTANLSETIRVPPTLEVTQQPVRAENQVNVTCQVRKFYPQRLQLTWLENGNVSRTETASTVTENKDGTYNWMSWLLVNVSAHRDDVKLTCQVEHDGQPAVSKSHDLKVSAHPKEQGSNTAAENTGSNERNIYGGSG
Method: as §1, §2

[6] = target: T6, full-length human SIRPβL (NP_001129316.1) on cells (human, UniProt Q5TFQ8 30-398); assay: flow cytometry, U937 SIRPα KO cells
T6 construct: on U937 SIRPα KO cells and Expi-CHO cells; also called βL WT; SIRPβ1v3
T6 sequence (Q5TFQ8 30-398): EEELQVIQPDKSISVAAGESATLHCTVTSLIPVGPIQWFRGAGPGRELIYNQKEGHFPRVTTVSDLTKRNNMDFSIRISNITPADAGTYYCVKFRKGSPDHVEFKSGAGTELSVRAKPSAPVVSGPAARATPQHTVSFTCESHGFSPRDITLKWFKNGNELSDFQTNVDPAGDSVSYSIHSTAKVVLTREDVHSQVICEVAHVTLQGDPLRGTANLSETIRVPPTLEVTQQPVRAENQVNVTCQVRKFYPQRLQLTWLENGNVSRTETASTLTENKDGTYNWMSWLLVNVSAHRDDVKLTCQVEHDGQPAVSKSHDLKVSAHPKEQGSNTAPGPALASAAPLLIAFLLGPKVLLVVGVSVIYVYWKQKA
Method: Antibody binding to cells expressing full-length human SIRPβ1 (NP_006056.2) and SIRPβL (NP_001129316.1) is evaluated by flow cytometry. SIRPβ1- or SIRPβL-expressing U937^{SIRPα KO} cells are blocked with donkey IgG and incubated on ice with increasing concentrations of antibodies for 60 minutes, washed and stained with AF647-conjugated donkey F(ab′)₂ anti-human IgG secondary reagent. Cells are washed, fixed, and analyzed by flow cytometry. Median fluorescent intensity is determined and used as a measure of antibody binding.

[7] = target: full-length human SIRPβ1 D→H on Expi-CHO cells (human, UniProt O00241 30-398); assay: flow cytometry, Expi-CHO cells
Chain of full-length human SIRPβ1 D→H on Expi-CHO cells (O00241 30-398 D130H): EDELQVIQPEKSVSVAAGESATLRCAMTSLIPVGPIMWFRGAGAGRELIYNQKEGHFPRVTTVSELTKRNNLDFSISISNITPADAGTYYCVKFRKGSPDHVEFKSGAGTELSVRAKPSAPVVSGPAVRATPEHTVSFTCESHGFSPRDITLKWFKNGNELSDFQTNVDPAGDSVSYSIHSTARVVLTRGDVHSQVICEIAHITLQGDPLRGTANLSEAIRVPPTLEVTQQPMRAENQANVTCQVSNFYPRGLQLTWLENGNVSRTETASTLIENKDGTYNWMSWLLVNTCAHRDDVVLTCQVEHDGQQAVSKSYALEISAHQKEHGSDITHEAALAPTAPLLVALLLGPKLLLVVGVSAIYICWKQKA
Method: These cells are blocked with donkey IgG and incubated on ice with increasing concentrations of antibodies for 60 minutes, washed and stained with AF647-conjugated donkey F(ab′)₂ anti-human IgG antibodies. Stained cells are washed, fixed, and analyzed by flow cytometry. Median fluorescent intensity is determined and used as a measure of antibody binding.

[8] = target: T7, full-length human SIRPγ (NP_061026.2) on cells (human, UniProt Q9P1W8 29-387); assay: flow cytometry, primary human CD3+ T cells
T7 construct: on CHO and Expi-CHO cells; endogenous on primary human CD3+ T cells; also called γ WT
T7 sequence (Q9P1W8 29-387): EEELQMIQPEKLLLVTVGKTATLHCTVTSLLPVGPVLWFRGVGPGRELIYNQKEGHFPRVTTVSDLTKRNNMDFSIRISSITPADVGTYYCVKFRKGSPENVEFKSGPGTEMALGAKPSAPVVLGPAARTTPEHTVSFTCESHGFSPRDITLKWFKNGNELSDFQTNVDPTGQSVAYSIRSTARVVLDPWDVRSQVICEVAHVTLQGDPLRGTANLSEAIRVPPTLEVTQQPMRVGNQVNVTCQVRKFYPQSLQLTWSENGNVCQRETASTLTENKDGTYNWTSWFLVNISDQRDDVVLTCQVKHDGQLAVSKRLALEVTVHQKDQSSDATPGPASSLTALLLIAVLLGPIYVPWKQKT
Method: Antibody binding to primary human T cells expressing endogenous SIRPγ is evaluated by flow cytometry. Human peripheral blood mononuclear cells (PBMCs) are blocked with donkey IgG and incubated on ice with increasing concentrations of antibody for 60 minutes, washed and stained with AF647-conjugated donkey F(ab′)₂ anti-human IgG secondary reagent. […] Cells are washed, fixed, and analyzed by flow cytometry. Median fluorescent intensity of CD3+ gated population is determined and used as a measure of antibody binding.

[9] = target: T3, human SIRPγ extracellular domain + …; assay: SPR, Ab captured, ECD-His analyte; remark: listed apart in the source
Method: as §1, §2

[10] = target: T8, human SIRPβ1 extracellular domain + His-tag (NP_006056.2) (human, UniProt O00241 30-371); assay: SPR, Ab captured, ECD-His analyte
T8 construct: also called hSIRPβ1; HuSIRPβ1
T8 sequence (O00241 other isoform, or with tags, fused parts or gaps): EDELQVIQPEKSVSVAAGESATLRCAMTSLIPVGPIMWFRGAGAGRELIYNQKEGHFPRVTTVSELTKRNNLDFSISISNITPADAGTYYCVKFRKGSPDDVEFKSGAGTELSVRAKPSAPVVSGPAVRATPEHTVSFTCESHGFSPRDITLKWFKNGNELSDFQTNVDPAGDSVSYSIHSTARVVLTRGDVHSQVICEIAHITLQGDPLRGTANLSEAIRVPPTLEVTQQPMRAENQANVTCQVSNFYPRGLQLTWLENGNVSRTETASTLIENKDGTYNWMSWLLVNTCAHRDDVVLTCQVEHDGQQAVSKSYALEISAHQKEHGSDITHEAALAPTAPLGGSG
Method: as §1, §2

[11] = target: T9, human SIRPβL/SIRPβ1v3 extracellular domain + His-tag (NP_001129316.1) (human, UniProt Q5TFQ8 30-371); assay: SPR, Ab captured, ECD-His analyte
T9 construct: also called hSIRPβ1v3; HuSIRPβ1v3
T9 sequence (Q5TFQ8 other isoform, or with tags, fused parts or gaps): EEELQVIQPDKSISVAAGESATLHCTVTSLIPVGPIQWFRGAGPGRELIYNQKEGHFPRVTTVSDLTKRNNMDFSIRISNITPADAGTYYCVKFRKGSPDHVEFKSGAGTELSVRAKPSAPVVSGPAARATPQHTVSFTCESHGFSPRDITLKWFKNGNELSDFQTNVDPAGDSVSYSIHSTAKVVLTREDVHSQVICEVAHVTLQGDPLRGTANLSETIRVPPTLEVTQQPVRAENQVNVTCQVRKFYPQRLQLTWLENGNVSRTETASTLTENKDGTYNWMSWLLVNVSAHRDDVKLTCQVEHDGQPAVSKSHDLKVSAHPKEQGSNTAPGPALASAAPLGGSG
Method: as §1, §2

[12] = target: T10, cynomolgus SIRPα extracellular domain + His-tag (XP_015313155) (cynomolgus monkey); assay: SPR, Ab captured, ECD-His analyte
T10 construct: also called CySIRPα XP_015313155; cynoSIRPα
T10 chain: T2 chain with A62P, V163F, L185V
Method: as §1, §2

[13] = target: T11, cynomolgus SIRPα extracellular domain + His-tag (EGM_02252) (cynomolgus monkey); assay: SPR, Ab captured, ECD-His analyte
T11 construct: also called CySIRPα EGM_02252; cynoSIRPα
T11 chain: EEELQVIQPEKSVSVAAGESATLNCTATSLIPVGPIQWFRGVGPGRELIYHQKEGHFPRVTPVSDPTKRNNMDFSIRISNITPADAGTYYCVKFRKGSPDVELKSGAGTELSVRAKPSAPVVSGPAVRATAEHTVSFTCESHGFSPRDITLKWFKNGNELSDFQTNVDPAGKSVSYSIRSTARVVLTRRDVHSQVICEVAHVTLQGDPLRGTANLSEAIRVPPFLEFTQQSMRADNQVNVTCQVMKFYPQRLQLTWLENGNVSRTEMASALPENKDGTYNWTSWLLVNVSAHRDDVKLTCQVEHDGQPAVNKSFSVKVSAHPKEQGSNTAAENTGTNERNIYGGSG
Method: as §1, §2

[14] = target: T12, cynomolgus SIRPβ1v3 extracellular domain + His-tag (XP_005568593) (cynomolgus monkey); assay: SPR, Ab captured, ECD-His analyte
T12 construct: also called Cyno SIRPβ1v3; cynoSIRPβ1v3
T12 chain: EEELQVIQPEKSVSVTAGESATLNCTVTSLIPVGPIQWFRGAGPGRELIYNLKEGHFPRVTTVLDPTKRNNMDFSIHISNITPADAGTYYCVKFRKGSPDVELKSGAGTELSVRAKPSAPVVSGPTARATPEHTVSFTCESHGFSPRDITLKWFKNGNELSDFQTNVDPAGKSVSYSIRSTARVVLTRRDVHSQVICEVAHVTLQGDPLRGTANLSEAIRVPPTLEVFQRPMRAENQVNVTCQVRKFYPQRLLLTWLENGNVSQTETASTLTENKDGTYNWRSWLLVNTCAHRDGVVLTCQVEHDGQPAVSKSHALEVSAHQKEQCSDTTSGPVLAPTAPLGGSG
Method: as §1, §2

[15] = target: T13, cynomolgus SIRPγ extracellular domain + His-tag (XP_005568591) (cynomolgus monkey, UniProt Q9P1W8 29-359 (human entry)); assay: SPR, Ab captured, ECD-His analyte
T13 construct: also called Cyno SIRPγ; cynoSIRPγ
T13 chain: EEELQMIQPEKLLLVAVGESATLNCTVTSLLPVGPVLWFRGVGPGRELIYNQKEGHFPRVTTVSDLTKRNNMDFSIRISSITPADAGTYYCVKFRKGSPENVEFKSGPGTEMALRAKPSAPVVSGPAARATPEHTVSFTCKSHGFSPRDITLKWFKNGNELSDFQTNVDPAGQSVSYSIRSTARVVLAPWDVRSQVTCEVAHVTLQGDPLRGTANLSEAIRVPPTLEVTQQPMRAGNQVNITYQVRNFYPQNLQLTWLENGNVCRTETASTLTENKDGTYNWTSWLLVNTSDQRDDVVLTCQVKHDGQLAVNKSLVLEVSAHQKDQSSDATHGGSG
Method: as §1, §2

[16] = target: T8, human SIRPβ1 extracellular domain + …; assay: SPR, Ab captured, ECD-His analyte; remark: listed apart in the source
Method: as §1, §2

[17] = target: T9, human SIRPβL/SIRPβ1v3 extracellular …; assay: SPR, Ab captured, ECD-His analyte; remark: listed apart in the source
Method: as §1, §2

binding result [1]: no binding
binding result [2]: no binding (tested: 1000 nM)
binding result [3]: no binding (tested: 1000 nM)
Kd [4]: 71.5 nM
Kd [5]: 17.4 nM
B1: Antibody B (antibody, human IgG1, kappa, L234A L235A, V domains shown)
VH: QVQLVQSGAEVKKPGASVKVSCKASGYTFTGNYMHWVRQAPGQGLEWMGWINPNSGGTNYAQKFQGRVTMTRDTSISTAYMELSRLRSDDTAVYYCVSGSGWYENYYYYGMDVWGQGTTVTVSS
VL: DIQMTQSPSSVSASVGDRVTITCRASQGISSWLAWYQQKPGKAPKLLIYAESSLQSGVPSRFSGSGSGTDFTLTISSLQPEDFATYYCQQANSFPLTFGGGTKVEIKR

binding result [6]: no binding
binding result [7]: no binding
binding result [8]: no binding
binding result [9]: no binding (tested: 1000 nM)
Kd [10]: 67.2 nM
binding result [11]: no binding (tested: 100 nM)
Kd [12]: 374 nM
Kd [13]: 508 nM
Kd [14]: 460 nM
binding result [15]: no binding (tested: 1000 nM)
B2: Antibody A4 (antibody, human IgG1, kappa, L234A L235A, V domains shown)
VH: EVQLVESGGGLVQPGGSLRLSCAASGFTLSSYDMHWVRQAPGKGLEWVSAIGTAGDTYYTGSVKGRFTISRENAKNSLYLQMNSLRAADTAVYYCVRGGVWDDAFDIWGQGTMVTVSS
VL: DIQMTQSPSSLSASVGDRVTITCRASQGINNYAAWFQQKPGKAPKSLIYTASSLHSGVPSKFSGSGSGTDFTLTISSLQPEDFATYYCQQYVSYPYTFGQGTKLEIKR

binding result [1]: no binding
binding result [8]: no binding
binding result [3]: no binding (tested: 1000 nM)
Kd [16]: 1270 nM
Kd [4]: 0.465 nM
Kd [5]: 0.497 nM
Kd [17]: 1.27 nM
B3: Antibody G (antibody, human IgG4 S228P, kappa)
heavy: not shown
light: DIVMTQSPLSLPVTPGEPASISCKSSQSLLYSNGYNYLDWYLQRPGQSPQLLIYLGSNRASGVPDRFSGSGSGTDFTLKISRVEAEDVGVFYCMQALQTPLTFGGGTKVEIKRTVAAPSVFIFPPSDEQLKSGTASVVCLLNNFYPREAKVQWKVDNALQSGNSQESVTEQDSKDSTYSLSSTLTLSKADYEKHKVYACEVTHQGLSSPVTKSFNRGEC

binding result [6]: no binding
binding result [8]: no binding
B4: Antibody A11 (antibody, human IgG4 S228P, kappa)
heavy: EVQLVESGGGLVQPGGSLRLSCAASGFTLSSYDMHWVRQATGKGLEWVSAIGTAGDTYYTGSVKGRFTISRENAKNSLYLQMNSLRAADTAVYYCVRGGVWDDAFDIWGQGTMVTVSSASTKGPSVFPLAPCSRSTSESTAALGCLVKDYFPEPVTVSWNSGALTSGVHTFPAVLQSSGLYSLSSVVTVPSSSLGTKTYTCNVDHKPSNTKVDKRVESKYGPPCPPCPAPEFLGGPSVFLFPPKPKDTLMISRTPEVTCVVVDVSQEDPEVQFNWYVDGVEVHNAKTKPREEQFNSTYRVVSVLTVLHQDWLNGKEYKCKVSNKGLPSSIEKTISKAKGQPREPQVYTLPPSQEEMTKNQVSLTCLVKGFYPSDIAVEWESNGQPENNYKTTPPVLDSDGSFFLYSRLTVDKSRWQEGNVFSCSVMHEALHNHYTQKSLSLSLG
light: DIQMTQSPSSLSASVGDRVTITCRASQDINNYLAWFQQKPGKAPKSLIYTASSLHSGVPSKFSGSGSGTDFTLTISSLQPEDFATYYCQQYVSYPYTFGQGTKLEIKRTVAAPSVFIFPPSDEQLKSGTASVVCLLNNFYPREAKVQWKVDNALQSGNSQESVTEQDSKDSTYSLSSTLTLSKADYEKHKVYACEVTHQGLSSPVTKSFNRGEC
